Results published in US20110052564.

Legend:
[1] = target: crossbeta FVIII-1 (cFVIII-1), Helixate kept at 4 C for 20 hours
[2] = target: crossbeta FVIII-5 (cFVIII-5), Helixate kept at 95 C for 5 minutes
[3] = target: T1, crossbeta dOVA-1, ovalbumin at 5.2 mg/ml in HBS treated with HCl for 40 minutes at 37 C and neutralized, P01012
T1 chain: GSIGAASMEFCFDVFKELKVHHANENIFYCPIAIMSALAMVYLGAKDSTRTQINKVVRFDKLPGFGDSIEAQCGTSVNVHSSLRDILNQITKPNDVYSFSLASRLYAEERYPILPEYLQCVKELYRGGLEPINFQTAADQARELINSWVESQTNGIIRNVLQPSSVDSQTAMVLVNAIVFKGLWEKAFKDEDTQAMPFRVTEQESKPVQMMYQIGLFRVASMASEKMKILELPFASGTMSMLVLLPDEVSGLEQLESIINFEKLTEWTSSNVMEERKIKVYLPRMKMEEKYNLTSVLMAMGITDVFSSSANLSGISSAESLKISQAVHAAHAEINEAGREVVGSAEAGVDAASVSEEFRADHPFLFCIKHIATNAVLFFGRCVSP

[4] = target: T2, crossbeta dOVA-2, ovalbumin at 1.0 mg/mL in PBS heated five cycles from 30 to 85 C, P01012
T2 chain: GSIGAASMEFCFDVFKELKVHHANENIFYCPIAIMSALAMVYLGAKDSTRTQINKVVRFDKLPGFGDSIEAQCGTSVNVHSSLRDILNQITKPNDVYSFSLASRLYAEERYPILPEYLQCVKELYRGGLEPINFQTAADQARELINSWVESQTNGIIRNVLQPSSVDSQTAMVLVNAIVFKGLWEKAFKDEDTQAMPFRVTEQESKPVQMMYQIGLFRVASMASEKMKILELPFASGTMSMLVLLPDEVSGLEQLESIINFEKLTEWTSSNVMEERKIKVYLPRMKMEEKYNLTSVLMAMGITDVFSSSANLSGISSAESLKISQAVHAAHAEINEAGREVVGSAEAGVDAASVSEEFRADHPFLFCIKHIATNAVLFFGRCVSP

[5] = target: T3, crossbeta dOVA-3, ovalbumin at 1 mg/ml in PBS incubated about 16 h at 75 C, P01012
T3 chain: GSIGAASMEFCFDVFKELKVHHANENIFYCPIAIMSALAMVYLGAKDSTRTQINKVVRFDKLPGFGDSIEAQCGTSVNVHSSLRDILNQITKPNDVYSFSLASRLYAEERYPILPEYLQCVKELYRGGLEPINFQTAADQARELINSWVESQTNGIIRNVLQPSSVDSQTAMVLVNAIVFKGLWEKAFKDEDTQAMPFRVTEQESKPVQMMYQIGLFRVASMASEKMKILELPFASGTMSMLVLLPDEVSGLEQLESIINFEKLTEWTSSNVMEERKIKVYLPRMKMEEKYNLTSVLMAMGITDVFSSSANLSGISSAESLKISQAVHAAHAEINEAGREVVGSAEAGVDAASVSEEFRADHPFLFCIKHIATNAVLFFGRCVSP

[6] = target: crossbeta factor VIII form 12, Helixate kept at 37 C for 1 week, P00451
[7] = target: T4, crossbeta nOVA, ovalbumin dissolved in PBS at 1.0 mg/mL, P01012
T4 chain: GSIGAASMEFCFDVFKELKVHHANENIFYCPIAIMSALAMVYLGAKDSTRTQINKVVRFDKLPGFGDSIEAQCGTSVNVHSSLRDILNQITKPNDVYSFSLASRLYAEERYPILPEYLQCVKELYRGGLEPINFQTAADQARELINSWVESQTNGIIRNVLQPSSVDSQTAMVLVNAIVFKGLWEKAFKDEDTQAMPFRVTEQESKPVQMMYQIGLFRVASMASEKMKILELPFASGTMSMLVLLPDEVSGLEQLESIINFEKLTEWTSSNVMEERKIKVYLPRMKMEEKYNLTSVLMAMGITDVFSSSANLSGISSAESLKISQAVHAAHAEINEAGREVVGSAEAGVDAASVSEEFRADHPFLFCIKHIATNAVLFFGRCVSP

[8] = target: misfolded H5 of H5N1 strain A/Vietnam/1203/04, cH5-1
[9] = target: misfolded H5 of H5N1 strain A/Vietnam/1203/04, cH5-2
[10] = target: misfolded H5 of H5N1 strain A/Vietnam/1203/04, cH5-3
[11] = target: misfolded H5 of H5N1 strain A/Vietnam/1203/04, cH5-4
[12] = target: non-treated H5 of H5N1 strain A/Vietnam/1203/04 (nH5), Protein Sciences

crossbeta FVIII-1 (cFVIII-1), Helixate kept at 4 C for 20 hours, sequence (chain, as listed by the source): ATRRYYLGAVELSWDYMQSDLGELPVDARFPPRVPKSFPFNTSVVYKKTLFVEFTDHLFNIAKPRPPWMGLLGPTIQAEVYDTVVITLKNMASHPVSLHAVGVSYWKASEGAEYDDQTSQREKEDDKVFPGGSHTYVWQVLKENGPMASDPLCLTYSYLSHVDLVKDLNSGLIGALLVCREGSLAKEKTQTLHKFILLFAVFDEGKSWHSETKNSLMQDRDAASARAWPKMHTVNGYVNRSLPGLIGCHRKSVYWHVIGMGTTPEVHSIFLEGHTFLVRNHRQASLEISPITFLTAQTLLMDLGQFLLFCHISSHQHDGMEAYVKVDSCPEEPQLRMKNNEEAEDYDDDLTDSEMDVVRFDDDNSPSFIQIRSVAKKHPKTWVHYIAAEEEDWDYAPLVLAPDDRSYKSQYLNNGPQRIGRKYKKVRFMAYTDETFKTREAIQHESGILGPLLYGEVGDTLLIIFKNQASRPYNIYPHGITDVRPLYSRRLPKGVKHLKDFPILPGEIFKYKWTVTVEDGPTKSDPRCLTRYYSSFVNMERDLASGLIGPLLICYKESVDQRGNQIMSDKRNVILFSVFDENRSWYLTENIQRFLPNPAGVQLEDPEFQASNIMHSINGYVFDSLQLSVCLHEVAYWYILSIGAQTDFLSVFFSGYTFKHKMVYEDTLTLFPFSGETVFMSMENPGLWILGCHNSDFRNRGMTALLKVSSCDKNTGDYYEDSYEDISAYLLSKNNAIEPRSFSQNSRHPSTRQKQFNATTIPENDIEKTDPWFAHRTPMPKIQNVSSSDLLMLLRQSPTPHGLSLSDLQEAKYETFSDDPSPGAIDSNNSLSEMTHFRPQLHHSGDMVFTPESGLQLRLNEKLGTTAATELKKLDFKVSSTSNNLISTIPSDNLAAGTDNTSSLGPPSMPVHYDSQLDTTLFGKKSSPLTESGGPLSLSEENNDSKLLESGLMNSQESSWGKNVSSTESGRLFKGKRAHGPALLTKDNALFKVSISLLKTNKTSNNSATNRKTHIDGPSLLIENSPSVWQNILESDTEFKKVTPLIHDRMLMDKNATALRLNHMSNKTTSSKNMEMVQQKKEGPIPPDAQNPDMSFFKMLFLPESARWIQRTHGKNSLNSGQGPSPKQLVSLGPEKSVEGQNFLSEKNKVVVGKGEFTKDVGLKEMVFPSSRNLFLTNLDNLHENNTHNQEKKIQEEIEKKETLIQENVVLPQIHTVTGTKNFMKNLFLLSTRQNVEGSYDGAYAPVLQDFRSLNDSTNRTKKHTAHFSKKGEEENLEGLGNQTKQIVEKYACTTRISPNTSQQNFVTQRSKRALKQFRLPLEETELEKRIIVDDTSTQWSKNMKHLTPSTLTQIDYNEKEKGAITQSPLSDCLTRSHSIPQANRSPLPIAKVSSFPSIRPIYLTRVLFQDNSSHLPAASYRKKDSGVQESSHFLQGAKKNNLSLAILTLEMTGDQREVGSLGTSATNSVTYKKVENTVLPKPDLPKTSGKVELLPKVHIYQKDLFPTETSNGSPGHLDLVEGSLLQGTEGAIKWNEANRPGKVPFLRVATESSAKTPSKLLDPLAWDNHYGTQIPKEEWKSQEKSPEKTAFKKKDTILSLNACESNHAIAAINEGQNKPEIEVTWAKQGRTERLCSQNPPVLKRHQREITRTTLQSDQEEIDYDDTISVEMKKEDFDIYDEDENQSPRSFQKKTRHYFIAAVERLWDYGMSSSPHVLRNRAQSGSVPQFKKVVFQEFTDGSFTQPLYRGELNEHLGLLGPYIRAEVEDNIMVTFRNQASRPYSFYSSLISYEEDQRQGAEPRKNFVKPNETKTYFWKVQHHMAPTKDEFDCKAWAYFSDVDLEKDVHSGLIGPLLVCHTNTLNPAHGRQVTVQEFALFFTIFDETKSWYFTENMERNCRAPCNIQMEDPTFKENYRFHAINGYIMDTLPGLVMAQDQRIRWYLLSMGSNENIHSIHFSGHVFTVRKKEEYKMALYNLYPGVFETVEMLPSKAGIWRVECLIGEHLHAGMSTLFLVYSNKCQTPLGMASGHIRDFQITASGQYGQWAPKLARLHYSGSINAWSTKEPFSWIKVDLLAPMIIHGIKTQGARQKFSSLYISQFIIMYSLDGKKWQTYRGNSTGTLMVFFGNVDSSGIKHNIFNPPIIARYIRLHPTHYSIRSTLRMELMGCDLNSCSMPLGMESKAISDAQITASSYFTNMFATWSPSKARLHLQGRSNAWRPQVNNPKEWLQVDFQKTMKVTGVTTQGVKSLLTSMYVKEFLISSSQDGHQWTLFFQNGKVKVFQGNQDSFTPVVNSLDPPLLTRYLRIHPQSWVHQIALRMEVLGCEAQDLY
crossbeta FVIII-5 (cFVIII-5), Helixate kept at 95 C for 5 minutes, sequence (chain, as listed by the source): as above
crossbeta factor VIII form 12, Helixate kept at 37 C for 1 week, P00451, sequence (P00451 whole entry, looked up): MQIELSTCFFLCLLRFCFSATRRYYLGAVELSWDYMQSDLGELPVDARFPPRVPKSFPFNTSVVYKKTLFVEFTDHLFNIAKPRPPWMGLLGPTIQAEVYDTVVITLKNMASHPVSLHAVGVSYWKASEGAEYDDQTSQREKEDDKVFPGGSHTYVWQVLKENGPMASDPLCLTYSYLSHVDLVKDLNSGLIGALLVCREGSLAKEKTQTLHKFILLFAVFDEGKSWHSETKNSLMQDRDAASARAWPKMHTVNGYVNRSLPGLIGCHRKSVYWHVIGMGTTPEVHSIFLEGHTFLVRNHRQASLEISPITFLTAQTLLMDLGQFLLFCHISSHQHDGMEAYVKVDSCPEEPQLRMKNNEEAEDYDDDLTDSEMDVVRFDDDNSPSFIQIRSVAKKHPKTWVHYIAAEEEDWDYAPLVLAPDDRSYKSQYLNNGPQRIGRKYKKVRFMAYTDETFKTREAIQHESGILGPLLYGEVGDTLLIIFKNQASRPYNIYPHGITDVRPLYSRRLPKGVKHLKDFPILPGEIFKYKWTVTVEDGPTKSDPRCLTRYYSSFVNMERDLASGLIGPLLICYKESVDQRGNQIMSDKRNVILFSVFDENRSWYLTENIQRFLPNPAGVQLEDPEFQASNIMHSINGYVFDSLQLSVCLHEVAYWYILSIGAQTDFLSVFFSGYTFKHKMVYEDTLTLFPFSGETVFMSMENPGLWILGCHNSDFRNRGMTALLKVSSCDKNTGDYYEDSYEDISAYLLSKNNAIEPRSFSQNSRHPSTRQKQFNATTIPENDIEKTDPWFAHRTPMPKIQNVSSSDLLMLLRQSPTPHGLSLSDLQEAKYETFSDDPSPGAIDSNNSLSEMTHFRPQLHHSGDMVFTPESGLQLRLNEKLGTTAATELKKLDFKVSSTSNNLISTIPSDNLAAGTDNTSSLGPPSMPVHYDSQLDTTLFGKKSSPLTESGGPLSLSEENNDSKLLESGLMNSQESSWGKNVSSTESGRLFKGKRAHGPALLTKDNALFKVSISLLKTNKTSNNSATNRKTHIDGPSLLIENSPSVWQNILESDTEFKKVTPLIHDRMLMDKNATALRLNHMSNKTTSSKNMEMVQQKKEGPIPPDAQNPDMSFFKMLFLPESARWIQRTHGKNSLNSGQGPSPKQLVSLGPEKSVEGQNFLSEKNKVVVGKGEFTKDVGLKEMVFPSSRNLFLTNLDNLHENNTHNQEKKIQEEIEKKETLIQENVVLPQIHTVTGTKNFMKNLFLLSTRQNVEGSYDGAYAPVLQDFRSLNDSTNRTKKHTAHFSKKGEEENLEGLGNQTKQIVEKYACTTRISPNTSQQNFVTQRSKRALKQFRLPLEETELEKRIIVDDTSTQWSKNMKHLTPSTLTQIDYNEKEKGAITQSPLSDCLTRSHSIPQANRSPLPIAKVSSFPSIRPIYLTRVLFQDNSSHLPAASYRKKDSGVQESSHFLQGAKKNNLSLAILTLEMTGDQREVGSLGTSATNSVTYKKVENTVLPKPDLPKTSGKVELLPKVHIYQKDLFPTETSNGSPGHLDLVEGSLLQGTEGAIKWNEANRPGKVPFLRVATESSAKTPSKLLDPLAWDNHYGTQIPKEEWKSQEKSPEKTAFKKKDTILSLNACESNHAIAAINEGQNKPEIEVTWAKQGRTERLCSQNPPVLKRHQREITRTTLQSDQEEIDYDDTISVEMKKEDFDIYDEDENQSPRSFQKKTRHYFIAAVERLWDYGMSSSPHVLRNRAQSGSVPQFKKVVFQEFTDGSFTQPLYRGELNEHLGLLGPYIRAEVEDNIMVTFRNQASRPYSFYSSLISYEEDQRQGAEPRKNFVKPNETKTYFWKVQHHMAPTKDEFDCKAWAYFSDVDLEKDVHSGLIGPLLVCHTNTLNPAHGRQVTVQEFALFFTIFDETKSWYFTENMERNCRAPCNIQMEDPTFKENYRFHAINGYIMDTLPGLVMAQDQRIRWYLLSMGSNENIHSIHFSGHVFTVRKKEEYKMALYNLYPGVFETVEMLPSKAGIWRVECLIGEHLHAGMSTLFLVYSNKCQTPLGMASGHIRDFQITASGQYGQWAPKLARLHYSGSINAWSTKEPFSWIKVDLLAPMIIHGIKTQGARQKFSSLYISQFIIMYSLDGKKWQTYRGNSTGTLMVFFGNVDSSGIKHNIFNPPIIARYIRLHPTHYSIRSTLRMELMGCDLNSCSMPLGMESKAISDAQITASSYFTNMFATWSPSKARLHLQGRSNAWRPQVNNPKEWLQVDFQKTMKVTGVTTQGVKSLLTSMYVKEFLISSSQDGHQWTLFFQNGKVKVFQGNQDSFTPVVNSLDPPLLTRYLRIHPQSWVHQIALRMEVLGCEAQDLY

B1: tissue type plasminogen activator (tPA; Actilyse, Boehringer-Ingelheim) (protein)
chain: SYQVICRDEKTQMIYQQHQSWLRPVLRSNRVEYCWCNSGRAQCHSVPVKSCSEPRCFNGGTCQQALYFSDFVCQCPEGFAGKCCEIDTRATCYEDQGISYRGTWSTAESGAECTNWNSSALAQKPYSGRRPDAIRLGLGNHNYCRNPDRDSKPWCYVFKAGKYSSEFCSTPACSEGNSDCYFGNGSAYRGTHSLTESGASCLPWNSMILIGKVYTAQNPSAQALGLGKHNYCRNPDGDAKPWCHVLKNRRLTWEYCDVPSCSTCGLRQYSQPQFRIKGGLFADIASHPWQAAIFAKHRRSPGERFLCGGILISSCWILSAAHCFQERFPPHHLTVILGRTYRVVPGEEEQKFEVEKYIVHKEFDDDTYDNDIALLQLKSDSSRCAQESSVVRTVCLPPADLQLPDWTECELSGYGKHEALSPFYSERLKEAHVRLYPSSRCTSQHLLNRTVTDNMLCAGDTRSGGPQANLHDACQGDSGGPLVCLNDGRMTLVGIISWGLGCGQKDVPGVYTKVTNYLDWIRDNMRP
Q: How did the “tPA/Plg activation assay, relative crossbeta content compared to a misfolded ovalbumin standard” value [1] turn out when B1 was run?
A: approximately 50, 75 and 125%

Q: And the “tPA/Plg activation assay, relative crossbeta content compared to a misfolded ovalbumin standard” value [2]?
A: approximately 50, 75 and 125%

Q: And the Activation at 10 ug/mL [3]?
A: 97.4%

Q: And the Activation at 25 ug/mL [3]?
A: 136%

Q: What about the Activation at 10 ug/mL [4] of the same protein?
A: 107%

Q: What about the Activation at 10 ug/mL (row is the reference dOVA-2 at 80, set at 100%) [4] of the same protein?
A: 100%

Q: What about the Activation at 25 ug/mL [4] of the same protein?
A: 107%

Q: What about the Activation at 25 ug/mL (row is the reference dOVA-2 at 80, set at 100%) [4] of the same protein?
A: 100%

Q: And the Activation at 10 ug/mL [5]?
A: 60.9%

Q: What about the Activation at 25 ug/mL [5] of the same protein?
A: 79%

Q: And the “tPA/Plg activation assay, relative crossbeta content compared to a misfolded ovalbumin standard” value [6]?
A: approximately 50, 75 and 125%

Q: What about the Activation at 10 ug/mL [7] of the same protein?
A: 48.8%

Q: What about the Activation at 25 ug/mL [7] of the same protein?
A: 48.1%

Q: What about the “tPA mediated plasminogen activation assay” value [8] of the same protein?
A: cH5-1 (50% of standard)

Q: And the “tPA mediated plasminogen activation assay” value [9]?
A: cH5-2 (150% of standard)

Q: And the “tPA mediated plasminogen activation assay” value [10]?
A: cH5-3 (200% of standard)

Q: What about the “tPA mediated plasminogen activation assay” value [11] of the same protein?
A: cH5-4 (37% of standard)

Q: What about the “tPA mediated plasminogen activation assay” value [12] of the same protein?
A: nH5 (140% of standard)
